This note sets out measurements from US20240343771A1 (Chugai, published 2024).

B1: Anti-IL-12 antibody Ab1 variant W103M VH/L46Q, Y49A VL (antibody, name in Kabat numbering)
heavy: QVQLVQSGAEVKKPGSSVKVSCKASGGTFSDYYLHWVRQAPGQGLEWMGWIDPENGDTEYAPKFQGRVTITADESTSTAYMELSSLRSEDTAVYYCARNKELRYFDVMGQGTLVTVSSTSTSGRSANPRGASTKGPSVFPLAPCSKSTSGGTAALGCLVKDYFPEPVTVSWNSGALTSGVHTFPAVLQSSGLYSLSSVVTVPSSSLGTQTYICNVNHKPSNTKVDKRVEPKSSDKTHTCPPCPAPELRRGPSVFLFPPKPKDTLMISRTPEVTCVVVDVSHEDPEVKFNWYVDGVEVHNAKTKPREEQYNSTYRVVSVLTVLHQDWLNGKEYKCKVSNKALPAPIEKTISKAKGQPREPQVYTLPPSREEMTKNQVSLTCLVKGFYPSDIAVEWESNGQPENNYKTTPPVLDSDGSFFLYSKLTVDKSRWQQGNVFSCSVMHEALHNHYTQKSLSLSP
light: DIVMTQSPLSLPVTPGEPASISCRASQSISINLHWYQQKPGQAPRQLIAFASQSISGVPSRFSGSGSGTDFTLTISSLQPEDFATYYCQQSNSFPLTFGQGTKVEIKRTVAAPSVFIFPPSDEQLKSGTASVVCLLNNFYPREAKVQWKVDNALQSGNSQESVTEQDSKDSTYSLSSTLTLSKADYEKHKVYACEVTHQGLSSPVTKSFNRGEC
notes: Ab1 with VH/VL interface substitutions; Kabat numbering
B2: Anti-IL-12 antibody Ab1 variant Y91A VH/A43Q, Y49A VL (antibody, name in Kabat numbering, V domains shown)
VH: QVQLVQSGAEVKKPGSSVKVSCKASGGTFSDYYLHWVRQAPGQGLEWMGWIDPENGDTEYAPKFQGRVTITADESTSTAYMELSSLRSEDTAVYACARNKELRYFDVWGQGTLVTVSS
VL: DIVMTQSPLSLPVTPGEPASISCRASQSISINLHWYQQKPGQQPRLLIAFASQSISGVPSRFSGSGSGTDFTLTISSLQPEDFATYYCQQSNSFPLTFGQGTKVEIKR
notes: as for B1
B3: Anti-IL-12 antibody Ab1 variant Y91M VH/A43Q, L46Q, Y49A VL (antibody, name in Kabat numbering, V domains shown)
VH: QVQLVQSGAEVKKPGSSVKVSCKASGGTFSDYYLHWVRQAPGQGLEWMGWIDPENGDTEYAPKFQGRVTITADESTSTAYMELSSLRSEDTAVYMCARNKELRYFDVWGQGTLVTVSS
VL: DIVMTQSPLSLPVTPGEPASISCRASQSISINLHWYQQKPGQQPRQLIAFASQSISGVPSRFSGSGSGTDFTLTISSLQPEDFATYYCQQSNSFPLTFGQGTKVEIKR
notes: as for B1
B4: Anti-IL-12 antibody Ab1 variant Y91M VH/P44A, Y49A VL (antibody, name in Kabat numbering, V domains shown)
VH: QVQLVQSGAEVKKPGSSVKVSCKASGGTFSDYYLHWVRQAPGQGLEWMGWIDPENGDTEYAPKFQGRVTITADESTSTAYMELSSLRSEDTAVYMCARNKELRYFDVWGQGTLVTVSS
VL: DIVMTQSPLSLPVTPGEPASISCRASQSISINLHWYQQKPGQAARLLIAFASQSISGVPSRFSGSGSGTDFTLTISSLQPEDFATYYCQQSNSFPLTFGQGTKVEIKR
notes: as for B1
B5: Anti-IL-12 antibody Ab1 variant Y91M VH/L46Q, Y49A, Y87M VL (antibody, name in Kabat numbering, V domains shown)
VH: QVQLVQSGAEVKKPGSSVKVSCKASGGTFSDYYLHWVRQAPGQGLEWMGWIDPENGDTEYAPKFQGRVTITADESTSTAYMELSSLRSEDTAVYMCARNKELRYFDVWGQGTLVTVSS
VL: DIVMTQSPLSLPVTPGEPASISCRASQSISINLHWYQQKPGQAPRQLIAFASQSISGVPSRFSGSGSGTDFTLTISSLQPEDFATYMCQQSNSFPLTFGQGTKVEIKR
notes: as for B1
B6: Anti-IL-12 antibody Ab1 variant W103M VH/P44A, Y49A VL (antibody, name in Kabat numbering)
heavy: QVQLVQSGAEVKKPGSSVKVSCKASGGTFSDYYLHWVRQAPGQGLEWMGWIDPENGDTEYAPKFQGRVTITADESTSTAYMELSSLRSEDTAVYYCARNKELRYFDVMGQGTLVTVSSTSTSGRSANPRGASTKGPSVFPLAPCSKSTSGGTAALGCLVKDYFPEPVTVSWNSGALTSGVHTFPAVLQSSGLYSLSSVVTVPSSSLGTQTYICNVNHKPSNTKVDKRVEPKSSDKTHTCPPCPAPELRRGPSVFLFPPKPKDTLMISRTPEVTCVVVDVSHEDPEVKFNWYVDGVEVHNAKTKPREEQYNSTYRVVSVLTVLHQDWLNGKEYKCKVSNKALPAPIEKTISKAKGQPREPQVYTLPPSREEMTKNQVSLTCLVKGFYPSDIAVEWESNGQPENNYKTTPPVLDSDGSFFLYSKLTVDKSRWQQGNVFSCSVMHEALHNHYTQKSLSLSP
light: DIVMTQSPLSLPVTPGEPASISCRASQSISINLHWYQQKPGQAARLLIAFASQSISGVPSRFSGSGSGTDFTLTISSLQPEDFATYYCQQSNSFPLTFGQGTKVEIKRTVAAPSVFIFPPSDEQLKSGTASVVCLLNNFYPREAKVQWKVDNALQSGNSQESVTEQDSKDSTYSLSSTLTLSKADYEKHKVYACEVTHQGLSSPVTKSFNRGEC
notes: as for B1
B7: Anti-IL-12 antibody Ab1 variant Y91M VH/L46Q, Y49A VL (antibody, name in Kabat numbering, V domains shown)
VH: QVQLVQSGAEVKKPGSSVKVSCKASGGTFSDYYLHWVRQAPGQGLEWMGWIDPENGDTEYAPKFQGRVTITADESTSTAYMELSSLRSEDTAVYMCARNKELRYFDVWGQGTLVTVSS
VL: DIVMTQSPLSLPVTPGEPASISCRASQSISINLHWYQQKPGQAPRQLIAFASQSISGVPSRFSGSGSGTDFTLTISSLQPEDFATYYCQQSNSFPLTFGQGTKVEIKR
notes: as for B1
B8: Anti-IL-12 antibody Ab1 variant Y91M VH/Y49A, Y87L VL (antibody, name in Kabat numbering, V domains shown)
VH: QVQLVQSGAEVKKPGSSVKVSCKASGGTFSDYYLHWVRQAPGQGLEWMGWIDPENGDTEYAPKFQGRVTITADESTSTAYMELSSLRSEDTAVYMCARNKELRYFDVWGQGTLVTVSS
VL: DIVMTQSPLSLPVTPGEPASISCRASQSISINLHWYQQKPGQAPRLLIAFASQSISGVPSRFSGSGSGTDFTLTISSLQPEDFATYLCQQSNSFPLTFGQGTKVEIKR
notes: as for B1
B9: Anti-IL-12 antibody Ab1 variant Y91M VH/Y49A, F98L VL (antibody, name in Kabat numbering, V domains shown)
VH: QVQLVQSGAEVKKPGSSVKVSCKASGGTFSDYYLHWVRQAPGQGLEWMGWIDPENGDTEYAPKFQGRVTITADESTSTAYMELSSLRSEDTAVYMCARNKELRYFDVWGQGTLVTVSS
VL: DIVMTQSPLSLPVTPGEPASISCRASQSISINLHWYQQKPGQAPRLLIAFASQSISGVPSRFSGSGSGTDFTLTISSLQPEDFATYYCQQSNSFPLTLGQGTKVEIKR
notes: as for B1
B10: Anti-IL-12 antibody Ab1 variant Y91A VH/- (antibody, name in Kabat numbering, V domains shown)
VH: QVQLVQSGAEVKKPGSSVKVSCKASGGTFSDYYLHWVRQAPGQGLEWMGWIDPENGDTEYAPKFQGRVTITADESTSTAYMELSSLRSEDTAVYACARNKELRYFDVWGQGTLVTVSS
VL: DIVMTQSPLSLPVTPGEPASISCRASQSISINLHWYQQKPGQAPRLLIYFASQSISGVPSRFSGSGSGTDFTLTISSLQPEDFATYYCQQSNSFPLTFGQGTKVEIKR
notes: as for B1
B11: Anti-IL-12 antibody Ab1 variant W103M VH/Y49A, Y87L VL (antibody, name in Kabat numbering)
heavy: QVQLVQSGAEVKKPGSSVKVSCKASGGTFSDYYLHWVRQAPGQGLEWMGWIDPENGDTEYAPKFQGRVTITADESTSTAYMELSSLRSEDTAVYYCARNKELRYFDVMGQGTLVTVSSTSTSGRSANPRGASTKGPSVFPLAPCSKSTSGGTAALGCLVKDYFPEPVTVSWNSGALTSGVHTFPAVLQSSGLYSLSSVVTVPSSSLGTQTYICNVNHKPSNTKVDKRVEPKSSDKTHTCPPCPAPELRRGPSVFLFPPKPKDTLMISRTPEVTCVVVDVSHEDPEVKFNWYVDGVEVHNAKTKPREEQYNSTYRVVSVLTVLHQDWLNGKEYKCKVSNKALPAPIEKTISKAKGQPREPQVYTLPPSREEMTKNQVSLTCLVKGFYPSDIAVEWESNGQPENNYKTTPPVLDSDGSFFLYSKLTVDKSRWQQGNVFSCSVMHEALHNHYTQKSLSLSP
light: DIVMTQSPLSLPVTPGEPASISCRASQSISINLHWYQQKPGQAPRLLIAFASQSISGVPSRFSGSGSGTDFTLTISSLQPEDFATYLCQQSNSFPLTFGQGTKVEIKRTVAAPSVFIFPPSDEQLKSGTASVVCLLNNFYPREAKVQWKVDNALQSGNSQESVTEQDSKDSTYSLSSTLTLSKADYEKHKVYACEVTHQGLSSPVTKSFNRGEC
notes: as for B1
B12: Anti-IL-12 antibody Ab1 variant Y91A VH/P44A, Y49A VL (antibody, name in Kabat numbering, V domains shown)
VH: QVQLVQSGAEVKKPGSSVKVSCKASGGTFSDYYLHWVRQAPGQGLEWMGWIDPENGDTEYAPKFQGRVTITADESTSTAYMELSSLRSEDTAVYACARNKELRYFDVWGQGTLVTVSS
VL: DIVMTQSPLSLPVTPGEPASISCRASQSISINLHWYQQKPGQAARLLIAFASQSISGVPSRFSGSGSGTDFTLTISSLQPEDFATYYCQQSNSFPLTFGQGTKVEIKR
notes: as for B1
B13: Anti-IL-12 antibody Ab1 variant Y91M VH/A43Q, Y49A VL (antibody, name in Kabat numbering, V domains shown)
VH: QVQLVQSGAEVKKPGSSVKVSCKASGGTFSDYYLHWVRQAPGQGLEWMGWIDPENGDTEYAPKFQGRVTITADESTSTAYMELSSLRSEDTAVYMCARNKELRYFDVWGQGTLVTVSS
VL: DIVMTQSPLSLPVTPGEPASISCRASQSISINLHWYQQKPGQQPRLLIAFASQSISGVPSRFSGSGSGTDFTLTISSLQPEDFATYYCQQSNSFPLTFGQGTKVEIKR
notes: as for B1
B14: Anti-IL-12 antibody Ab1 variant Y91L VH/- (antibody, name in Kabat numbering, V domains shown)
VH: QVQLVQSGAEVKKPGSSVKVSCKASGGTFSDYYLHWVRQAPGQGLEWMGWIDPENGDTEYAPKFQGRVTITADESTSTAYMELSSLRSEDTAVYLCARNKELRYFDVWGQGTLVTVSS
VL: DIVMTQSPLSLPVTPGEPASISCRASQSISINLHWYQQKPGQAPRLLIYFASQSISGVPSRFSGSGSGTDFTLTISSLQPEDFATYYCQQSNSFPLTFGQGTKVEIKR
notes: as for B1
B15: Anti-IL-12 antibody Ab1 variant Y91A VH/Y49A, Y87L VL (antibody, name in Kabat numbering, V domains shown)
VH: QVQLVQSGAEVKKPGSSVKVSCKASGGTFSDYYLHWVRQAPGQGLEWMGWIDPENGDTEYAPKFQGRVTITADESTSTAYMELSSLRSEDTAVYACARNKELRYFDVWGQGTLVTVSS
VL: DIVMTQSPLSLPVTPGEPASISCRASQSISINLHWYQQKPGQAPRLLIAFASQSISGVPSRFSGSGSGTDFTLTISSLQPEDFATYLCQQSNSFPLTFGQGTKVEIKR
notes: as for B1
B16: Anti-IL-12 antibody Ab1 variant Y91M VH/A43Q, P44A, Y49A VL (antibody, name in Kabat numbering, V domains shown)
VH: QVQLVQSGAEVKKPGSSVKVSCKASGGTFSDYYLHWVRQAPGQGLEWMGWIDPENGDTEYAPKFQGRVTITADESTSTAYMELSSLRSEDTAVYMCARNKELRYFDVWGQGTLVTVSS
VL: DIVMTQSPLSLPVTPGEPASISCRASQSISINLHWYQQKPGQQARLLIAFASQSISGVPSRFSGSGSGTDFTLTISSLQPEDFATYYCQQSNSFPLTFGQGTKVEIKR
notes: as for B1
B17: Anti-IL-12 antibody Ab1 variant Y91A VH/L46Q, Y49A VL (antibody, name in Kabat numbering, V domains shown)
VH: QVQLVQSGAEVKKPGSSVKVSCKASGGTFSDYYLHWVRQAPGQGLEWMGWIDPENGDTEYAPKFQGRVTITADESTSTAYMELSSLRSEDTAVYACARNKELRYFDVWGQGTLVTVSS
VL: DIVMTQSPLSLPVTPGEPASISCRASQSISINLHWYQQKPGQAPRQLIAFASQSISGVPSRFSGSGSGTDFTLTISSLQPEDFATYYCQQSNSFPLTFGQGTKVEIKR
notes: as for B1
B18: Anti-IL-12 antibody Ab1 variant Y91M VH/- (antibody, name in Kabat numbering, V domains shown)
VH: QVQLVQSGAEVKKPGSSVKVSCKASGGTFSDYYLHWVRQAPGQGLEWMGWIDPENGDTEYAPKFQGRVTITADESTSTAYMELSSLRSEDTAVYMCARNKELRYFDVWGQGTLVTVSS
VL: DIVMTQSPLSLPVTPGEPASISCRASQSISINLHWYQQKPGQAPRLLIYFASQSISGVPSRFSGSGSGTDFTLTISSLQPEDFATYYCQQSNSFPLTFGQGTKVEIKR
notes: as for B1

The target of this test is T1, human IL-12 (human, UniProt P29460 23-328; P29459 23-219).
T1 construct: also called Interleukin-12
T1 sequence 1: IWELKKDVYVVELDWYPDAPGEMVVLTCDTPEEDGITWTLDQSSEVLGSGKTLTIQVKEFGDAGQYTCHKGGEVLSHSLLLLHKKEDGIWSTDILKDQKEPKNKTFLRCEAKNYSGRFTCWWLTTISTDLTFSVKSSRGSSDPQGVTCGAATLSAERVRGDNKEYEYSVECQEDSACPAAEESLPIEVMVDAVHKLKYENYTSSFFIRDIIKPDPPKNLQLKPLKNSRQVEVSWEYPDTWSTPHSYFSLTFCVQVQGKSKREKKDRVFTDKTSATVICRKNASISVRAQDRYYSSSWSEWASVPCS
T1 sequence 2: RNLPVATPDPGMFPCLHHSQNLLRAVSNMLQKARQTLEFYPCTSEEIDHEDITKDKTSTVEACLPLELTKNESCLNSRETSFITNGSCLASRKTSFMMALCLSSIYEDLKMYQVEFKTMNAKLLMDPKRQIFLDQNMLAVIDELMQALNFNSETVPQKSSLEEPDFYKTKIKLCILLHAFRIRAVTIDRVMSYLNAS
Kind of test: SPR (Biacore T200), 37 C, pH 7.4; captured antibody, IL-12 analyte. As for the experimental part: The affinity of anti-IL-12 antibodies binding to human IL-12 at pH 7.4 were determined at 37 degrees C. using Biacore T200 instrument (Cytiva). Anti-human Fc antibody (Cytiva) was immobilized onto all flow cells (FCs) of a CM4 sensor chip using amine coupling kit (Cytiva). All antibodies and analytes were prepared in ACES pH 7.4 containing 20 mM ACES, 150 mM NaCl, 0.05% Tween 20, 0.005% NaN₃. Each antibody was captured onto the sensor surface by anti-human Fc antibody. Antibody capture levels were aimed at 50 response unit (RU). 5 nM of human IL-12 were injected as analyte, followed by dissociation. Sensor surface was regenerated each cycle with 3M MgCl₂. […] Based on the results in Table 9, it is observed that binding kinetics of anti-IL-12 antibody AbI variants towards IL-12 were not drastically changed compared to control (−/−).
What is called Kd is the free concentration of one partner at which half of the binding sites on the other are occupied at equilibrium, for simple one-to-one binding. The low end stands for tighter binding, the high end for weaker binding. In turn, B1 yielded a Kd of 3.52 nM.

Molecule B2 came in with a Kd of 1.91 nM.

B3 had a Kd of 4.41 nM.

In turn, B4 came in with a Kd of 1.83 nM.

The molecule B5 yielded a Kd of 3.83 nM.

Molecule B6 gave a Kd of 1.07 nM.

B7 registered a Kd of 3.83 nM.

As for B8, binding was characterised by a dissociation constant (Kd) of 3.1 nM.

The molecule B9 gave a Kd of 1.07 nM.

B10 yielded a Kd of 0.948 nM.

Regarding B11, the Kd stood at 1.79 nM.

As for B12, the dissociation constant Kd turned out to be 2.32 nM.

For the molecule B13, binding was characterised by a dissociation constant (Kd) of 1.87 nM.

Consider B14, for which binding was put at a Kd of 1.21 nM.

Regarding B15, the Kd stood at 2.82 nM.

B16 registered a Kd of 1.69 nM.

B17 came in with a Kd of 3.97 nM.

For the molecule B18, the affinity, expressed as Kd, was 0.827 nM.
